“Also recorded” adds a separate entry of the source.
B1: ˜55 kilodalton (kDa) laminin fragment: ˜55 kDa Aβ-binding fragment from V8 or elastase digested mouse EHS laminin; within globular repeats of the laminin A chain (E3 region) (protein)
chain: HREHGELPPEPPTLPQPELCAVDTAPGYVAGAHQFGLSQNSHLVLPLNQSDVRKRLQVQLSIRTFASSGLIYYVAHQNQMDYATLQLQEGRLHFMFDLGKGRTKVSHPALLSDGKWHTVKTEYIKRKAFMTVDGQESPSVTVVGNATTLDVERKLYLGGLPSHYRARNIGTITHSIPACIGEIMVNGQQLDKDRPLSASAVDRCYVVAQEGTFFEGSGYAALVKEGYKVRLDLNITLEFRTTSKNGVLLGISSAKVDAIGLEIVDGKVLFHVNNGAGRITATYQPRAARALCDGKWHTLQAHKSKHRIVLTVDGNSVRAESPHTHSTSADTNDPIYVGGYPAHIKQNCLSSRASFRGCVRNLRLSRGSQVQSLDLSRAFDLQGVFPHSCPGPEP

Experiments:
Aβ (1-40) = biological target: T1, Aβ (1-40) (Homo sapiens, UniProt P05067); assay: Thioflavin T fluorometry, Aβ (1-40) amyloid fibril formation; assay type: biochemical; conditions: comparison of basement membrane components (FIG. 3), 25 μM Aβ (1-40), 100 nM, 1 hour to 1 week
T1 construct: 2 μg of Aβ (1-40)(Bachem Inc., Torrance, Calif. USA; Lot #WM365); purchased Bachem Inc., Torrance, Calif; Lot #WM365
Method: The effects of laminin on Aβ fibrillogenesis was also determined using the previously described method of Thioflavin T fluorometry (Naiki et al, Lab. Invest. 65:104-110, 1991; Levine III, Protein Sci. 2:404-410, 1993; Levine III, Int. J. Exp. Clin. Invest. 2:1-6, 1995; Naiki and Nakakuki, Lab. Invest. 74:374-383, 1996). In this assay, Thioflavin T binds specifically to fibrillar amyloid and this binding produces a fluorescence enhancement at 480 nm that is directly proportional to the amount of amyloid fibrils formed (Naiki et al, Lab. Invest. 65:104-110, 1991; Levine III, Protein Sci. 2:404-410, 1993; Levine III, Int. J. Exp. Clin. Invest. 2:1-6, 1995; Naiki and Nakakuki, Lab. Invest. 74:374-383, 1996). In a first study, the effects of EHS laminin on Aβ (1-40) fibrillogenesis was assessed. For this study, 25 μM of freshly solubilized Aβ (1-40)(Bachem Inc., Torrance, Calif., USA; Lot #WM365) was incubated in microcentrifuge tubes at 37° C. for 1 week (in triplicate), either alone, or in the presence of 100 nM EHS laminin (Sigma Chemical Company, St. Louis, Mo., USA) in 100 mM Tris, 50 mM NaCl, pH 7.0 (TBS). 100 nM of laminin utilized for these studies represented a Aβ:laminin molar ratio of 250:1. 50 μl aliquots were then taken from each tube for analysis at 1 hr, 1 day, 3 days, and 1 week. In a second set of studies, the effects of laminin on Aβ (1 -40) fibril formation was directly compared to other basement membrane components including fibronectin, type IV collagen and perlecan. For these studies, 25 μM of freshly solubilized Aβ (1-40) was incubated in microcentrifuge tubes for 1 week (in triplicate) either alone, or in the presence of 100 nM of EHS perlecan (isolated as previously described)(Castillo et al, J. Biochem. 120:433-444, 1996), fibronectin (Sigma Chemical Company, St. Louis, Mo., USA) or type IV collagen (Sigma Chemical Company, St. Louis, Mo., USA). 50 ul aliquots were then taken for analysis at 1 hour, 1 day, 3 days and 1 week. In a third set of studies, 25 μM of freshly solubilized Aβ (1-40) was incubated in microcentrifuge tubes for 1 week (in triplicate) either alone, or in the presence of increasing concentrations of laminin (i.e. 5 nM, 15 nM, 40 nM and 100 nM). 50 μl aliquots were taken for analysis at 1 hour, 1 day, 3 days and 1 week.
For each determination described above, following each incubation period, Aβ peptides +/− laminin, perlecan, fibronectin or type IV collagen, were added to 1.2 ml of 100 μM Thioflavin T (Sigma Chemical Co., St. Louis, Mo.) in 50 mM phosphate buffer (pH 6.0). Fluorescence emission at 480 nm was measured on a Turner instrument-model 450 fluorometer at an excitation wavelength of 450 nm. For each determination, the fluorometer was calibrated by zeroing in the presence of the Thioflavin T reagent alone, and by seting the 50 ng/ml riboflavin (Sigma Chemical Co., St. Louis, Mo.) in the Thioflavin T reagent to 1800 fluorescence units. All fluorescence determinations were based on these references and any background fluorescence given off by laminin, perlecan, type IV collagen, or fibronectin alone in the presence of the Thioflavin T reagent was always subtracted from all pertinent readings.

biotinylated Aβ (1-40) = biological target: T2, biotinylated Aβ (1-40) (Homo sapiens, UniProt P05067); assay: Aβ ligand blot of undigested and V8-, trypsin- or elastase-digested EHS laminin; assay type: binding; conditions: 2 μM biotinylated Aβ (1-40), SDS-PAGE under non-reducing conditions
T2 construct: Aβ (1-40) was biotinylated according to the manufacturer's protocol (Pierce, Rockford, Ill.)
Method: For these experiments, Aβ (1-40) was biotinylated according to the manufacturer's protocol (Pierce, Rockford, Ill.). For the ligand studies, intact EHS laminin was left undigested, or digested with V8 or trypsin (Sigma Chemical Company, St. Louis, Mo., USA). More specifically, 2 μg of trypsin or V8 protease in 2 μl of 50 MM Tris-HCl buffer (pH 8.0) were added to 50 μl of laminin (50 μg)(in the same buffer) and incubated overnight at 37° C. The next day, 10 μl of protease-digested laminin (or undigested laminin) was mixed with 10 μl of 2× sodium dodecyl sulfate polyacrylamide gel electrophoresis (SDS-PAGE) sample buffer, and heated for 5 minutes in a boiling water bath. SDS-PAGE was performed according to the method of Laemmli (Laemmli, U.K. Nature 227:680-685, 1970), or according to the method of Schägger and Jagow (Schägger and Jagow, Anal. Biochem. 166:368-379, 1987) using a Mini-Protean II electrophoresis system (Biorad) with precast 4-15% Tris-Glycine or 10-20% tricine polyacrylamide gels, respectively, and under non-reducing conditions. Electrophoresis occurred at 200V for 45 minutes along with pre-stained molecular weight standards. After SDS-PAGE (10-20% tricine or 4-15% Tris-Glycine gels) was performed as described above, the separated laminin and its fragments (total protein of 10 μg/lane) were transferred to polyvinylidine difluoride membrane (PVDF) using a Mini transblot electrophoresis transfer cell (Biorad, Hercules, Calif., U.S.A.). Electrotransfer was performed at 100V for 2 hours. Following transfer, membranes were rinsed with methanol and dried. The fragment(s) of laminin involved in binding to Aβ were then detected by using biotinylated-Aβ (1-40), as described above. Blots were probed for 2 hours with 2 μM biotinylated Aβ (1-40) in TTBS. The membranes were then rinsed three times (10 seconds each) with TTBS, probed for 30 minutes with strepavidin alkaline phosphatase conjugate (Vectastain), rinsed again (as described above), and followed by the addition of an alkaline phosphatase substrate solution (Vectastain). Following color development, the reaction was stopped by flushing the membranes with double distilled water. In the next set of studies, we determined whether small fragment(s) of laminin generated by elastase digestion would bind to Aβ. […] For these experiments, Aβ (1-40) was biotinylated according to the manufacturer's protocol (Pierce, Rockford, Ill.). For the ligand studies, intact EHS laminin was left undigested, or digested with elastase (Sigma Chemical Company, St. Louis, Mo., USA). For elastase digestion, 2 μg of elastase in 8 μl of 50 mM Tris-HCl buffer (pH 8.0) was added to 50 μl of laminin (50 μg)(in the same buffer) and incubated for 1.5 hours or 2.5 hours at 37° C. In addition, as a control, 2 μg of elastase in 50 μl of 50 mM Tris-HCl buffer (pH 8.0) was incubated for 2.5 hours at 37° C. Following the appropriate incubation times as described above, 10 μl of each of the above incubations were mixed with 10 μl of 2× SDS-PAGE electrophoresis sample buffer, and heated for 5 minutes in a boiling water bath. SDS-PAGE was performed according to the method of Laemmli (Laemmli, Nature 227:680-685, 1970) using a Mini-Protean II electrophoresis system with precast 4-15% Tris-Glycine polyacrylamide gels, and under non-reducing conditions. Electrophoresis occurred at 200V for 45 minutes along with pre-stained molecular weight standards (Biorad). After SDS-PAGE was performed as described above, the separated laminin fragments were transferred to PVDF using a Mini transblot electrophoresis transfer cell (Millipore, Bedford, Mass., U.S.A.). Electrotransfer was performed at 100V for 2 hours. Following transfer, membranes were rinsed with methanol, dried and cut into two equal parts which were used for Aβ ligand blotting, or Coomassie blue staining and subsequent amino acid sequencing. The fragment(s) of laminin involved in binding to Aβ were then detected by using biotinylated-Aβ (1-40), as described above. […]

T2 sequence (P05067 672-711 limits assumed): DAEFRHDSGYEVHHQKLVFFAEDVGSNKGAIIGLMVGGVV
T1 sequence (P05067 672-711 limits assumed): as above

Molecule	effect on Aβ (1-40) fibrillogenesis, in words (Aβ (1-40))	effect on Aβ (1-40) fibrillogenesis, in words (Aβ (1-40); listed as Perlecan)	interaction with biotinylated Aβ (1-40) on ligand blot, in words (biotinylated Aβ (1-40))	interaction with biotinylated Aβ (1-40) on ligand blot, in words (biotinylated Aβ (1-40); listed as 55 kDa laminin fragment)	interaction with biotinylated Aβ (1-40) on ligand blot, in words (biotinylated Aβ (1-40); listed as ˜55 kDa)	interaction with biotinylated Aβ (1-40) on ligand blot, in words (biotinylated Aβ (1-40); listed as ˜55 kilodalton fragment)	interaction with biotinylated Aβ (1-40) on ligand blot, in words (biotinylated Aβ (1-40); listed as ˜55 kilodalton laminin fragment)
fibronectin [reference compound]	not effective inhibitors; also recorded: only showed significant inhibition of Aβ (1-40) fibrillogenesis at 1 week	–	–	–	–	–	–
perlecan: EHS perlecan, basement membrane component used as comparison [reference compound]	not effective inhibitors	significantly accelerate Aβ (1-40) amyloid formation at 1 day and 3 days	–	–	–	–	–
B1	–	–	interact with biotinylated Aβ (1-40)	positive Aβ binding interaction	interacted with Aβ (1-40)	interacts with Aβ	binds biotinylated Aβ
